Source: PMC2206118

Columns and labels:
FIR1+2 WT (FIR RRM1+2) [1] = biological target: T1, FIR1+2 WT (FIR RRM1+2) (human, UniProt Q9UHX1-2 101-299, R106G;C112S;C238A); assay: fluorescence anisotropy
FIR1+2 F254L = FIR1+2 F254L (human, UniProt Q9UHX1-2 101-299, R106G;C112S;C238A;F254L); assay: fluorescence anisotropy
FIR1+2 Y115L = FIR1+2 Y115L (human, UniProt Q9UHX1-2 101-299, R106G;C112S;C238A;Y115L); assay: fluorescence anisotropy
FIR1+2 F157L = FIR1+2 F157L (human, UniProt Q9UHX1-2 101-299, R106G;C112S;C238A;F157L); assay: fluorescence anisotropy
Sequence of FIR1+2 F157L (Q9UHX1 118-316 R123G/C129S/F174L/C255A): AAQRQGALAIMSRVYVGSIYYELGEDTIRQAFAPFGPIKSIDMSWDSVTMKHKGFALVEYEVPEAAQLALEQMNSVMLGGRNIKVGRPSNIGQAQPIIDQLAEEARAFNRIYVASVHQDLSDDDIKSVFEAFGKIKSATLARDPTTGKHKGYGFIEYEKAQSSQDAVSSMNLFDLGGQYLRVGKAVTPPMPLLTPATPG

FIR1+2 WT (FIR RRM1+2) [2] = biological target: T1, FIR1+2 WT (FIR RRM1+2); assay: X-ray crystallography

T1 sequence (Q9UHX1 118-316 R123G/C129S/C255A): as the sequence (Q9UHX1 118-316 R123G/C129S/F174L/C255A) above, with L57F counted along it
Sequence of FIR1+2 F254L (Q9UHX1 118-316 R123G/C129S/C255A/F271L): as the sequence (Q9UHX1 118-316 R123G/C129S/F174L/C255A) above, with L57F, F154L counted along it
Sequence of FIR1+2 Y115L (Q9UHX1 118-316 R123G/C129S/Y132L/C255A): as the sequence (Q9UHX1 118-316 R123G/C129S/F174L/C255A) above, with Y15L, L57F counted along it

| Binder | Kd (FIR1+2 WT (FIR RRM1+2) [1]) [µM] | Kd (FIR1+2 F254L) [µM] | Kd (FIR1+2 Y115L) [µM] | Kd (FIR1+2 F157L) [µM] | binding result (FIR1+2 WT (FIR RRM1+2) [2]) |
| --- | --- | --- | --- | --- | --- |
| CCTCGGGATTTTTTATTTTGTGTTATT (ssDNA) [H27 (FUSE), fluorescein] | 2.3 ± 1.8 | 0.17 ± 0.13 | 81 ± 31 | 140 ± 85 |  |
| TCGGGATTTTTTATTTTGTGTTATT (ssDNA) [H25 (FUSE)] |  |  |  |  | binds |
